Data as given in the supplement of paper PMC5998384.

Key:
[1] = test system: HeLa Kyoto; test: solubility in G1/S (NP-40 vs SDS abundance) (log2 ratio); higher = more soluble; conditions: cell cycle stage: G1/S
[2] = test system: HeLa Kyoto; test: solubility change mitosis vs G1/S (difference of NP-40 vs SDS log2 ratios) (log2 ratio difference); higher = more soluble in mitosis
[3] = test system: HeLa Kyoto; test: melting temperature (median over replicates), in situ; higher = more thermally stable
[4] = test system: HeLa Kyoto; test: thermal stability score vs G1/S (z-score of summed log2 fold changes over temperatures); higher = more thermally stable than in G1/S
[5] = cell cycle stage: early G1 (4.5 h after nocodazole release)
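For melting temperature (median over replicates), in situ in this document: HeLa Kyoto cells synchronized by double thymidine or nocodazole block, proteins quantified by TMT10plex mass spectrometry, three independent biological replicates.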
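For solubility change mitosis vs G1/S (difference of NP-40 vs SDS log2 ratios) in this document: synchronized HeLa Kyoto cells (double thymidine block for G1/S, nocodazole release for mitosis), protein amounts in NP-40 versus SDS lysates quantified by mass spectrometry, three biological replicates.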
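For solubility in G1/S (NP-40 vs SDS abundance) in this document: HeLa Kyoto cells arrested at G1/S by double thymidine block, proteins quantified by TMT10plex mass spectrometry in mild NP-40 versus SDS extracts, three biological replicates.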
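For thermal stability score vs G1/S (z-score of summed log2 fold changes over temperatures) in this document: synchronized HeLa Kyoto cells, proteins quantified by TMT10plex mass spectrometry, three biological replicates, mitosis taken 0.5 h after nocodazole release, G1/S directly after double thymidine block.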

Chain of CBX3 (chain, as listed by the source): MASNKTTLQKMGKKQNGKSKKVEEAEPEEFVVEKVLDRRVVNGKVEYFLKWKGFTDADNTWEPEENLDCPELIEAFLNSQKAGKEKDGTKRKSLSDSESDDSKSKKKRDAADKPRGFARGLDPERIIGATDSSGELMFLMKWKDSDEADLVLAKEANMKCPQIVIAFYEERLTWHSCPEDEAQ

Row | Substance | solubility in G1/S (log2) [1] | solubility change mitosis (log2) [2] | melting temperature ([3]; cell cycle stage: G1/S) | melting temperature ([3]; cell cycle stage: mitosis) | thermal stability score [4, 5] | thermal stability score ([4]; cell cycle stage: mitosis)
1 | MVLSELAARLNCAEYKNWVKAGHCLLLLRSCLQGFVGREVLSFHRGLLAAAPGLGPRAVCRGGSRCSPRARQFQPQCQVCAEWKREILRHHVNRNGDVHWGNCRPGRWPVDAWEVAKAFMPRGLADKQGPEECDAVALLSLINSCDHFVVDRKKVTEVIKCRNEIMHSSEMKVSSTWLRDFQMKIQNFLNEFKNIPEIVAVYSRIEQLLTSDWAVHIPEEDQRDGCECEMGTYLSESQVNEIEMQLLKEKLQEIYLQAEEQEVLPEELSNRLEVVKEFLRNNEDLRNGLTEDMQKLDSLCLHQKLDSQEPGRQTPDRKA [CXORF38] | 0.0857 | -0.0263 | 52.5 °C | 52.1 °C | -0.304 | 2.18
2 | MAAAAARWNHVWVGTETGILKGVNLQRKQAANFTAGGQPRREEAVSALCWGTGGETQMLVGCADRTVKHFSTEDGIFQGQRHCPGGEGMFRGLAQADGTLITCVDSGILRVWHDKDKDTSSDPLLELRVGPGVCRMRQDPAHPHVVATGGKENALKIWDLQGSEEPVFRAKNVRNDWLDLRVPIWDQDIQFLPGSQKLVTCTGYHQVRVYDPASPQRRPVLETTYGEYPLTAMTLTPGGNSVIVGNTHGQLAEIDLRQGRLLGCLKGLAGSVRGLQCHPSKPLLASCGLDRVLRIHRIQNPRGLEHKVYLKSQLNCLLLSGRDNWEDEPQEPQEPNKVPLEDTETDELWASLEAAAKRKLSGLEQPQGALQTRRRKKKRPGSTSP [WDR74] | -0.848 | 0.631 |  | 52 °C | -0.813 | -1.48
3 | MDSNTAPLGPSCPQPPPAPQPQARSRLNATASLEQERSERPRAPGPQAGPGPGVRDAAAPAEPQAQHTRSRERADGTGPTKGDMEIPFEEVLERAKAGDPKAQTEVGKHYLQLAGDTDEELNSCTAVDWLVLAAKQGRREAVKLLRRCLADRRGITSENEREVRQLSSETDLERAVRKAALVMYWKLNPKKKKQVAVAELLENVGQVNEHDGGAQPGPVPKSLQKQRRMLERLVSSESKNYIALDDFVEITKKYAKGVIPSSLFLQDDEDDDELAGKSPEDLPLRLKVVKYPLHAIMEIKEYLIDMASRAGMHWLSTIIPTHHINALIFFFIVSNLTIDFFAFFIPLVIFYLSFISMVICTLKVFQDSKAWENFRTLTDLLLRFEPNLDVEQAEVNFGWNHLEPYAHFLLSVFFVIFSFPIASKDCIPCSELAVITGFFTVTSYLSLSTHAEPYTRRALATEVTAGLLSLLPSMPLNWPYLKVLGQTFITVPVGHLVVLNVSVPCLLYVYLLYLFFRMAQLRNFKGTYCYLVPYLVCFMWCELSVVILLESTGLGLLRASIGYFLFLFALPILVAGLALVGVLQFARWFTSLELTKIAVTVAVCSVPLLLRWWTKASFSVVGMVKSLTRSSMVKLILVWLTAIVLFCWFYVYRSEGMKVYNSTLTWQQYGALCGPRAWKETNMARTQILCSHLEGHRVTWTGRFKYVRVTDIDNSAESAINMLPFFIGDWMRCLYGEAYPACSPGNTSTAEEELCRLKLLAKHPCHIKKFDRYKFEITVGMPFSSGADGSRSREEDDVTKDIVLRASSEFKSVLLSLRQGSLIEFSTILEGRLGSKWPVFELKAISCLNCMAQLSPTRRHVKIEHDWRSTVHGAVKFAFDFFFFPFLSAA [WFS1] | 0.109 | -0.183 | 51.7 °C | 52.2 °C | 2.34 | 3.05
4 | MADTQYILPNDIGVSSLDCREAFRLLSPTERLYAYHLSRAAWYGGLAVLLQTSPEAPYIYALLSRLFRAQDPDQLRQHALAEGLTEEEYQAFLVYAAGVYSNMGNYKSFGDTKFVPNLPKEKLERVILGSEAAQQHPEEVRGLWQTCGELMFSLEPRLRHLGLGKEGITTYFSGNCTMEDAKLAQDFLDSQNLSAYNTRLFKEVDGEGKPYYEVRLASVLGSEPSLDSEVTSKLKSYEFRGSPFQVTRGDYAPILQKVVEQLEKAKAYAANSHQGQMLAQYIESFTQGSIEAHKRGSRFWIQDKGPIVESYIGFIESYRDPFGSRGEFEGFVAVVNKAMSAKFERLVASAEQLLKELPWPPTFEKDKFLTPDFTSLDVLTFAGSGIPAGINIPNYDDLRQTEGFKNVSLGNVLAVAYATQREKLTFLEEDDKDLYILWKGPSFDVQVGLHELLGHGSGKLFVQDEKGAFNFDQETVINPETGEQIQSWYRSGETWDSKFSTIASSYEECRAESVGLYLCLHPQVLEIFGFEGADAEDVIYVNWLNMVRAGLLALEFYTPEAFNWRQAHMQARFVILRVLLEAGEGLVTITPTTGSDGRPDARVRLDRSKIRSVGKPALERFLRRLQVLKSTGDVAGGRALYEGYATVTDAPPECFLTLRDTVLLRKESRKLIVQPNTRLEGSDVQLLEYEASAAGLIRSFSERFPEDGPELEEILTQLATADARFWKGPSEAPSGQA [DPP3] | 0.153 | -0.14 | 53.8 °C | 53 °C | -0.363 | -1.69
5 | NCAPD3 | -0.316 | -0.0894 | 48.4 °C | 49.8 °C | 0.362 | 0.667
6 | MEGQRWLPLEANPEVTNQFLKQLGLHPNWQFVDVYGMDPELLSMVPRPVCAVLLLFPITEKYEVFRTEEEEKIKSQGQDVTSSVYFMKQTISNACGTIGLIHAIANNKDKMHFESGSTLKKFLEESVSMSPEERARYLENYDAIRVTHETSAHEGQTEAPSIDEKVDLHFIALVHVDGHLYELDGRKPFPINHGETSDETLLEDAIEVCKKFMERDPDELRFNAIALSAA [UCHL3] | 0.205 | 0.183 | 52.2 °C | 52.2 °C | 0.593 | -0.422
7 | MAATAAEAVASGSGEPREEAGALGPAWDESQLRSYSFPTRPIPRLSQSDPRAEELIENEEPVVLTDTNLVYPALKWDLEYLQENIGNGDFSVYSASTHKFLYYDEKKMANFQNFKPRSNREEMKFHEFVEKLQDIQQRGGEERLYLQQTLNDTVGRKIVMDFLGFNWNWINKQQGKRGWGQLTSNLLLIGMEGNVTPAHYDEQQNFFAQIKGYKRCILFPPDQFECLYPYPVHHPCDRQSQVDFDNPDYERFPNFQNVVGYETVVGPGDVLYIPMYWWHHIESLLNGGITITVNFWYKGAPTPKRIEYPLKAHQKVAIMRNIEKMLGEALGNPQEVGPLLNTMIKGRYN [HIF1AN] | 0.273 | -0.0585 | 52.3 °C | 51.7 °C | 0.637 | 1.68
8 | MRGAGAILRPAARGARDLNPRRDISSWLAQWFPRTPARSVVALKTPIKVELVAGKTYRWCVCGRSKKQPFCDGSHFFQRTGLSPLKFKAQETRMVALCTCKATQRPPYCDGTHRSERVQKAEVGSPL [CISD3] | -0.205 | 0.0825 | 50.8 °C |  | -0.749 | -0.997
9 | MEPAPARSPRPQQDPARPQEPTMPPPETPSEGRQPSPSPSPTERAPASEEEFQFLRCQQCQAEAKCPKLLPCLHTLCSGCLEASGMQCPICQAPWPLGADTPALDNVFFESLQRRLSVYRQIVDAQAVCTRCKESADFWCFECEQLLCAKCFEAHQWFLKHEARPLAELRNQSVREFLDGTRKTNNIFCSNPNHRTPTLTSIYCRGCSKPLCCSCALLDSSHSELKCDISAEIQQRQEELDAMTQALQEQDSAFGAVHAQMHAAVGQLGRARAETEELIRERVRQVVAHVRAQERELLEAVDARYQRDYEEMASRLGRLDAVLQRIRTGSALVQRMKCYASDQEVLDMHGFLRQALCRLRQEEPQSLQAAVRTDGFDEFKVRLQDLSSCITQGKDAAVSKKASPEAASTPRDPIDVDLPEEAERVKAQVQALGLAEAQPMAVVQSVPGAHPVPVYAFSIKGPSYGEDVSNTTTAQKRKCSQTQCPRKVIKMESEEGKEARLARSSPEQPRPSTSKAVSPPHLDGPPSPRSPVIGSEVFLPNSNHVASGAGEAEERVVVISSSEDSDAENSSSRELDDSSSESSDLQLEGPSTLRVLDENLADPQAEDRPLVFFDLKIDNETQKISQLAAVNRESKFRVVIQPEAFFSIYSKAVSLEVGLQHFLSFLSSMRRPILACYKLWGPGLPNFFRALEDINRLWEFQEAISGFLAALPLIRERVPGASSFKLKNLAQTYLARNMSERSAMAAVLAMRDLCRLLEVSPGPQLAQHVYPFSSLQCFASLQPLVQAAVLPRAEARLLALHNVSFMELLSAHRRDRQGGLKKYSRYLSLQTTTLPPAQPAFNLQALGTYFEGLLEGPALARAEGVSTPLAGRGLAERASQQS [PML] | -0.134 | 0.33 | 50.3 °C | 50.5 °C | -0.223 | 2.23
10 | CBX3 | -0.141 | 0.672 | 49.9 °C | 50.9 °C | 0.789 | 1.67
11 | MEATGTDEVDKLKTKFISAWNNMKYSWVLKTKTYFSRNSPVLLLGKCYHFKYEDEDKTLPAESGCTIEDHVIAGNVEEFRKDFISRIWLTYREEFPQIEGSALTTDCGWGCTLRTGQMLLAQGLILHFLGRAWTWPDALNIENSDSESWTSHTVKKFTASFEASLSGEREFKTPTISLKETIGKYSDDHEMRNEVYHRKIISWFGDSPLALFGLHQLIEYGKKSGKKAGDWYGPAVVAHILRKAVEEARHPDLQGITIYVAQDCTVYNSDVIDKQSASMTSDNADDKAVIILVPVRLGGERTNTDYLEFVKGILSLEYCVGIIGGKPKQSYYFAGFQDDSLIYMDPHYCQSFVDVSIKDFPLETFHCPSPKKMSFRKMDPSCTIGFYCRNVQDFKRASEEITKMLKFSSKEKYPLFTFVNGHSRDYDFTSTTTNEEDLFSEDEKKQLKRFSTEEFVLL [ATG4C] | -1.32 | 0.268 | 50.6 °C | 50.3 °C | -0.279 | 0.138
12 | MLPAALLRRPGLGRLVRHARAYAEAAAAPAAASGPNQMSFTFASPTQVFFNGANVRQVDVPTLTGAFGILAAHVPTLQVLRPGLVVVHAEDGTTSKYFVSSGSIAVNADSSVQLLAEEAVTLDMLDLGAAKANLEKAQAELVGTADEATRAEIQIRIEANEALVKALE [ATP5D] | 0.603 | -0.0082 | 55.7 °C | 54.5 °C | -2.35 | -1.13
13 | MALSAQQIPRWFNSVKLRSLINAAQLTKRFTRPARTLLHGFSAQPQISSDNCFLQWGFKTYRTSSLWNSSQSTSSSSQENNSAQSSLLPSMNEQSQKTQNISSFDSELFLEELDELPPLSPMQPISEEEAIQIIADPPLPPASFTLRDYVDHSETLQKLVLLGVDLSKIEKHPEAANLLLRLDFEKDIKQMLLFLKDVGIEDNQLGAFLTKNHAIFSEDLENLKTRVAYLHSKNFSKADVAQMVRKAPFLLNFSVERLDNRLGFFQKELELSVKKTRDLVVRLPRLLTGSLEPVKENMKVYRLELGFKHNEIQHMITRIPKMLTANKMKLTETFDFVHNVMSIPHHIIVKFPQVFNTRLFKVKERHLFLTYLGRAQYDPAKPNYISLDKLVSIPDEIFCEEIAKASVQDFEKFLKTL [MTERF3] | 0.238 | -0.167 | 49.7 °C | 50.3 °C | -0.741 | 0.517
14 | SUCLG1 | 0.168 | -0.0912 | 50.8 °C | 50.9 °C | -0.306 | -0.375
